The target of the data set is HER2 (human epidermal growth factor receptor 2) (Homo sapiens, UniProt P04626 P04626:23-652). As to the kind of experiment: electrochemical SWV aptasensor; 0.1-200 ng/mL HER2 in 10 mM PBS pH 7.4, 1 h; MCH/BSA blocked; LOD 0.008 ng/mL; also detected in spiked undiluted human serum; protein source not stated. The settings on record: label: immobilized via thiol on gold nanostructured laser-scribed graphene electrode. On the procedure: The concentrated Mercaptohexanol (MCH) solution was first prepared in ultrapure water and then further diluted in 10 mM PBS (pH 7.4). 4 μM of DNA aptamer 410 was mixed with 20 μM of MCH 412 prepared with 10 mM PBS (pH 7.4) to obtain a homogenized solution. As the next step, 6 μL from this mixture was placed in step 402 onto the LSG-AuNS modified working electrode 104 and incubated for 16 h, as shown in FIG. 4B. The MCH 412 covers a first part of the surface of the nanostructure 110 while the aptamer 410 covers a second part of the surface of the nanostructure 110. However, a third part of the surface of the nanostructure 110 is not covered by either of the MCH or the aptamer. The LSG-AuNS electrode surface was cleaned with 10 mM PBS (pH 7.4) to remove the excess of aptamer molecules 410 and MCH 412. The aptasensor was incubated in step 405 in 0.1 mg/mL of BSA solution 414 in 10 mM PBS (pH 7.4) for 45 min to cover a third part of the surface of the nanostructure 110, to reduce non-specific adsorption, as illustrated in FIG. 4C. In one application, the sum of the surfaces of the first to third parts covers the entire surface of the nanostructure 110. However, in another application, the sum of the first to third parts cover less than the entire surface of the nanostructure 110. Finally, the aptamer modified electrode 104 was washed with 10 mM PBS (pH 7.4) for at least five times. […]

B1: thiol-modified anti-Her-2 DNA aptamer (APT) (ssDNA)
DNA: AACCGCCCAAATCCCTAAGAGTCTGCACTTGTCATTTTGTATATGTATTTGGTTTTTGGCTCTCACAGACACACTACACACGCACA
modifications: 5'-ThiC6 (thiol C6 linker)
As to B1, the binding result is “binds”.

For the origin of these results see US20260104381, “ELECTRODEPOSITED METAL MODIFIED LASER SCRIBED GRAPHENE ELECTRODE AND METHOD” (KING ABDULLAH UNIVERSITY OF SCIENCE AND TECHNOLOGY, published 2026).
